Experimental data reported in article PMC5838168, “Effect of human very low-density lipoproteins on cardiotrophin-like cytokine factor 1 (CLCF1) activity” (Scientific Reports, 2018).

Biological target: T1, recombinant ApoE3 (human, UniProt P02649 19-317)
T1 construct: Apolipoprotein E, isoform ApoE3; also called apolipoprotein E3; source: bought: BioVision
Test: AlphaScreen or HTRF; AlphaLISA: ApoE2, 3 or 4 (0-100 nM) with biotinylated CLCF1 (10 nM) in PBS 0.1% BSA, rat anti-ApoE IgG (3 nM), anti-rat IgG acceptor beads, streptavidin donor beads; also with ApoE (30 nM) preincubated with DMPC (0-1000 uM) 1 h at 37 °C
Conditions: both partners purified

T1 sequence (P02649 19-317): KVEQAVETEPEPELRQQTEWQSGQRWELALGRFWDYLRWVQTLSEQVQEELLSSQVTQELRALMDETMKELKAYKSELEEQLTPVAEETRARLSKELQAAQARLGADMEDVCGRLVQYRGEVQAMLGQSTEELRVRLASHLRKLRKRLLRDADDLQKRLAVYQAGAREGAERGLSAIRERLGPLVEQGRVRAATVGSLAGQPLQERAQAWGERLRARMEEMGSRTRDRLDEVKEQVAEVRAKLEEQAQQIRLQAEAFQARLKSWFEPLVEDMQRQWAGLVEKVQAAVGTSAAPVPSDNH

B1: biotinylated human CLCF1 (cardiotrophin-like cytokine factor 1) (ligand, UniProt Q9UBD9 28-225, looked up)
chain: LNRTGDPGPGPSIQKTYDLTRYLEHQLRSLAGTYLNYLGPPFNEPDFNPPRLGAETLPRATVDLEVWRSLNDKLRLTQNYEAYSHLLCYLRGLNRQAATAELRRSLAHFCTSLQGLLGSIAGVMAALGYPLPQPLPGTEPTWTPGPAHSDFLQKMDDFWLLKELQTWLWRSAKDFNRLKKKMQPPAAAVTLHLGAHGF
modifications: biotin on the Avitag (BirA biotin-ligase)
notes: Cardiotrophin-like cytokine factor 1 (CLCF1), human, mature protein, codon optimized synthetic cDNA in pET24d; also called biotinylated hCLCF1; hCLC biot
- binding result: binds
